Experimental findings from FireProtDB (doi:10.1021/bi015547k) are described below.

The conditions of the data set: Pseudomonas putida; pH 7; 25 °C; Urea; CD; potassium phosphate 20 mM; reversible: yes; whole UniProt chain shown.

B1: Steroid Delta-isomerase wild type, P07445 (protein)
chain: MNLPTAQEVQGLMARYIELVDVGDIEAIVQMYADDATVEDPFGQPPIHGREQIAAFYRQGLGGGKVRACLTGPVRASHNGCGAMPFRVEMVWNGQPCALDVIDVMRFDEHGRIQTMQAYWSEVNLSVREPQ
Regarding B1, the denaturant m value was 3.39 kcal/mol/M, the “denaturant midpoint (higher = more stable)” value came to 5.22 M and the unfolding free energy came to 24.3 kcal/mol.
